Experimental data as given in article PMC2659011.

Assays:
purified protein [1] = substrate: O=C(O)/C=C\Cl; test: purified protein; conditions: 20 mM Na2HPO4 pH 9.0, 22 °C
purified protein [2] = substrate: O=C(O)/C=C/Cl; test: purified protein; conditions: 20 mM Na2HPO4 pH 9.0, 22 °C
[3] = substrate: CC#CC(=O)C(=O)O; test: spectrophotometric hydration assay; type: biochemical, Corynebacterium glutamicum; conditions: 20 mM Na2HPO4 pH 9.0, 23 °C

Protein | Km (purified protein [1]) | kcat (purified protein [1]) | kcat/Km (purified protein [1]) | Km (purified protein [2]) | kcat (purified protein [2]) | kcat/Km (purified protein [2]) | Km [3] | kcat [3] | kcat/Km [3]
Cg10062 (Corynebacterium glutamicum ATCC 13032) (protein) PTYTCWSQRIRISREAKQRIAEAITDAHHELAHAPKYLVQVIFNEVEPDSYFIAAQSASENHIWVQATIRSGRTEKQKEELLLRLTQEIALILGIPNEEVWVYITEIPGSNMTEYGRLLMEPGEEEKWFNSLPEGLRERLTELEGSSE | 19 ± 1 mM | 3.5 ± 1.1 s⁻¹ | 184 M⁻¹ s⁻¹ | 78 ± 36 mM | 0.06 ± 0.01 s⁻¹ | 0.8 M⁻¹ s⁻¹ | 6.2 ± 0.75 mM | 0.33 ± 0.03 s⁻¹ | 50 M⁻¹ s⁻¹
CaaD (trans-3-chloroacrylic acid dehalogenase) (Pseudomonas pavonaceae) (protein) chain 1: PMISCDMRYGRTDEQKRALSAGLLRVISEATGEPRENIFFVIREGSGINFVEHGEHLPDYVPGNANDKALIAKLK chain 2: PFIECHIATGLSVARKQQLIRDVIDVTNKSIGSDPKIINVLLVEHAEANMSISGRIHGEAASTERTPAVS |  |  |  | 0.028 ± 0.003 mM | 1.9 ± 0.6 s⁻¹ | 68000 M⁻¹ s⁻¹ |  |  | 
